# Data from paper PMC7972811.
# Assays:
# [1] = molecular target: SARS-CoV-2 spike S2P (ectodomain of the SARS-CoV-2 S trimer) (SARS-CoV-2, ancestral (P0DTC2 sequence)); assay: SPR
# [2] = molecular target: SARS-CoV-2 spike S2P (ectodomain of the SARS-CoV-2 S trimer) (SARS-CoV-2, ancestral (P0DTC2 sequence))
substance,measurement,setting,value
2-15 IgG with the paratope somatic hypermutation Y32F (light chain) reverted to germline (antibody),fold reduction of binding affinity against 2-15 IgG,[1],12 fold
same,"pseudovirus neutralization potency, fold reduction against 2-15 IgG",[2],42 fold
